Where “and” joins values, the source holds several entries; their conditions need not be identical. Identical values can stand only once.

Experimental findings from patent publication US12497461B2, “Human NTCP-binding antibody capable of inhibiting infection of hepatitis B virus (HBV) to human hepatocytes” (priority 2019, dated 2025) are described below.

One data set concerns pseudo-HBV (HBV/NL). Description: Infection inhibitory activity test using pseudo-HBV with integrated NanoLuc gene (Example 1). In kind it is cell-based, hepatitis B virus (HBV). As to conditions: pseudo-virus, FIG. 1A. On the procedure: The culture supernatant of 61,500 hybridomas was allowed to react with B lymphoma cell line forcibly expressing hNTCP and a parent cell line, washed and stained with a fluorescence-labeled anti-mouse IgG antibody. Screening was carried out by FACS to obtain 700 hybridoma cell lines producing an antibody that binds to an NTCP. The positive-hybridoma culture supernatant was screened by an HBV inhibitory activity test using a pseudo-virus. […] Using the culture supernatant of each clone, the test was repeated. As is apparent from FIG. 1A, hybridoma clones producing an antibody, which lowers an HBV infection rate but not viability of cells, were obtained.
The clone-derived antibodies established were purified and the activities of them were checked again by a test for infection inhibitory activity using pseudo-HBV obtained by integrating a NanoLuc gene into the genome.

The subject of a further data set is HBV. Description: HBV-infection inhibition in human hepatocyte chimeric mouse, serum HBV-DNA. In kind it is in vivo, human hepatocyte chimeric mouse (uPA/SCID). Further details: key to serum HBV DNA level, One week later / serum HBV DNA level, Two weeks later / serum HBV DNA level, Three weeks later / serum HBV DNA level, Four weeks later / serum HBV DNA level, Five weeks later: “—” indicates values below the limit of detection.; “<3.61” indicates values below the limit of quantitation but a specific signal detected indicating an amplification reaction of HBV. On the procedure: Preparation of uPA/SCID mice and transplantation of human hepatocytes were carried out in accordance with the report (Tateno C. et al., Am. J. Pathol., 165: 901-912, 2004). To all mice, human hepatocytes taken from the same donor were transplanted. Twenty-three mice, which are obtained by replacing 90% or more of the liver tissue with human hepatocytes by transplantation, were used in the experiment. To these mice, human serum containing 10^3 copies of HBV was administered (inoculated) through the tail vein. One day before and two days after HBV inoculation, 2.0 mg of purified N6HB426-20 antibody was intravenously injected. On Day 7, 14, and 21 after the HBV inoculation, 1.0 mg of the same antibody was intraperitoneally injected. As a control experiment, the same dose of normal mouse IgG antibody (Normal Mouse IgG, Whole Molecule, Purified, FUJIFILM Wako Pure Chemical Corporation) was injected in the same manner. A single mouse died on Day 0 after administration was excluded from the experiment. Ten mice for each of the groups, in total, 20 mice, were used. After the HBV inoculation, the serum was collected every week. Note that, 3 mice were used for confirmation of infection and not administered with a drug.
For quantification of HBV-DNA, 10 μL of mouse serum was used. Mouse serum was diluted with 690 μL of PBS and DNA was extracted. The serum HBV-DNA level was measured by a real-time PCR method using cobas 6800 System (Roche Diagnostics KK, Tokyo, Japan). In this measurement method, the lower limit of quantification was 3.61 log copies/mL. Mouse serum (10 μL) was diluted 30 folds with PBS and bile acid was measured.

Data set [1] concerns the target T1, epitope region-containing peptide fragment (AFPPEVIGPLFFFPLLYMIFQLGEG-biotin) (Homo sapiens, UniProt Q14973).
T1 sequence (Q14973 273-297 limits assumed): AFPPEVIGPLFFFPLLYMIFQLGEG
As to the kind of experiment: Surface plasmon resonance assay (BIAcore) of antigen binding affinity. The following applies: 25° C.; antibody immobilized on CM5 chip. The protocol:
In short, a carboxymethylated dextran biosensor chip (CM5, BIAcore Inc.) was activated by N-ethyl-N′-(3-dimethylaminopropyl)-carbodiimide hydrochloride (EDC) and N-hydroxysuccinimide (NHS) in accordance with the provider's instruction. An anti-mouse IgG antibody was diluted with 10 mM sodium acetate (pH5.2) up to 30 μg/ml. The dilution was injected at a flow rate of 5 to 10 μl/minute such that the reaction unit (RU) of the protein bound became 9,000 to 14,000 RU. In contrast, an anti-human IgG antibody was diluted with 10 mM sodium acetate (pH5.0) up to 25 μg/ml. The diluted antibody was injected at a flow rate of 5 to 10 μl/minute such that the reaction unit (RU) of the protein bound became 9,000 to 14,000 RU. After injection of each of the anti IgG antibodies, 1 M ethanolamine was injected in order to block unreactive groups. For kinetic measurement, N6HB426 antibody diluted with a running buffer (HBS-P: 10 mM HEPES pH7.5, 150 mM NaCl, 0.005% NP40) up to 10 μg/ml was immobilized onto CM5 chip via the anti-mouse IgG antibody, in advance. To the chip, a solution of an epitope region-containing peptide fragment ([…]-biotin: SEQ ID NO: 24) diluted with the running buffers at different concentrations was added at 25° C. at a flow rate of 10 μl/minute for 2 minutes. In contrast, the recombinant N6HB426 human chimeric IgG4 antibody was diluted with the running buffer up to 10 μg/ml and then was immobilized onto a sensor chip (CM5) via the anti-human IgG antibody in advance. To the chip, a solution of an epitope region-containing peptide fragment diluted with the running buffers at different concentrations was added at 25° C. at a flow rate of 10 μl/minute for 2 minutes.
The refractive index of the solution varied in correlation to the mass of a chip surface changed when a peptide fragment molecule bound to N6HB426 antibody on the sensor chip, was monitored in real-time. Using simple one-to-one Langmuir binding model (BIAcore Evaluation software version 3.1) by fitting sensor grams of antigen-antibody association and dissociation at the same time, association rate (Ka) and dissociation rate (Kd) were calculated. A Kd/Ka ratio was calculated to obtain an equilibrium dissociation constant (KD).

Data set [2] concerns HBV / NTCP double mutant (PE276, 277AA). As to the kind of experiment: HBV infection of cells expressing NTCP double mutant in the presence of antibody. It counts as cell-based, hepatitis B virus (HBV). As to conditions: FIG. 7. The source says:
To establish NTCP expression cells, HepG2 cells or Huh7 cells were infected with a lentiviral vector having a nucleic acid encoding a wild-type NTCP or each of NTCP mutants. Forty-eight hours after infection, the cells were subjected to an immunofluorescence assay or a viral infection assay.

Data set [3] concerns HBV (Genotype C or Genotype D).

B1: N6HB426-20 antibody: anti-human NTCP monoclonal antibody from a sub-clone of N6HB426 hybridoma; VH SEQ ID NO: 3, VL SEQ ID NO: 4 (antibody, V domains shown)
VH: QVQLQQSGAELVKPGASVKLSCKASDFTFTEYTIHWIKQMSGQGLEWIGWFYPGSGDIKYSEKFKDKATLTADKSSSTVYMELNRLTSEDSAVYFCARHMRDFRGFYYGRFYFDYWGQGTTLTVSS
VL: EIVLTQSPAIMSASPGEKVTITCRASSSVSSSYLHWYQQKSGVSPKLWIYSTSNLASGVPARFSGSGSGTSYSLTINSVEAEDAATYYCQQYSGYRWTFGGGTTLEIKRA
modifications: N6HB426 antibody heavy chain variable region; N6HB426 antiibody light chain variable region
Consider B1, for which the “HBV inhibitory activity of hybridoma culture supernatant” value in the data set on pseudo-HBV (HBV/NL) was “comparable to preS1 peptide”. Besides, the “serum HBV-DNA in the 4th week after HBV inoculation” value in the data set on HBV (all of the 10 mice of the group) was “not detected”. Also, in the data set with HBV (test group, individual mice, five weeks after HBV inoculation), the “serum HBV DNA level, Five weeks later” value was “— (8×) and <3.61 log copies/mL”. For the same molecule, the “serum HBV DNA level, Four weeks later” value in the data set on HBV (test group, individual mice, four weeks after HBV inoculation) is “—”. Besides, the “serum HBV DNA level, One week later” value with HBV (test group, individual mice, one week after HBV inoculation) is recorded as “—”. In addition, the “serum HBV DNA level, Three weeks later” value in the data set on HBV (test group, individual mice, three weeks after HBV inoculation) was “—”. Further, the “serum HBV DNA level, Two weeks later” value in the data set with HBV (test group, individual mice, two weeks after HBV inoculation) was “—”. In data set [1], the “Ka (1/Ms) association rate” value worked out at 821.2 M⁻¹ s⁻¹ and the “Kd (1/s) dissociation rate” value worked out at 3.19e-08 s⁻¹. Besides, the “inhibition of HBV infection of cells expressing double mutant (PE276, 277AA)” value in data set [2] is given as “failed to be inhibited”. The “inhibitory activity on infection of normal human hepatocytes with HBV” value in data set [3] was “comparable to preS1”.
